The source of these data is the Human Domainome abundance scans (Beltran et al. 2025).

Sequences and labels used below:
B1: Ankyrin-3, residues 4094 to 4171; numbered along this chain, Q12955 (parent)
chain: MAIVADHLGLSWTELARELNFSVDEINQIRVENPNSLISQSFMLLKKWVTRDGKNATTDALTSVLTKINRIDIVTLLE

± gives the uncertainty stated by the source.

Variants of B1 are the subject of the data set. The experiment in a line: abundance fitness (aPCA) (normalised: wild type 0, dead -1); higher = more abundant; growth selection in yeast, the domain comes from the species named. Particulars: Homo sapiens.
Regarding MAIVADHLGPSWTELARELNFSVDEINQIRVENPNSLISQSFMLLKKWVTRDGKNATTDALTSVLTKINRIDIVTLLE, the abundance fitness is -0.04 ± 0.086. With MAIVADHLGVSWTELARELNFSVDEINQIRVENPNSLISQSFMLLKKWVTRDGKNATTDALTSVLTKINRIDIVTLLE, the abundance fitness amounted to 0.029 ± 0.06. MAIVADHLGWSWTELARELNFSVDEINQIRVENPNSLISQSFMLLKKWVTRDGKNATTDALTSVLTKINRIDIVTLLE: the abundance fitness is -0.101 ± 0.078. As to MAIVADHLGQSWTELARELNFSVDEINQIRVENPNSLISQSFMLLKKWVTRDGKNATTDALTSVLTKINRIDIVTLLE, the abundance fitness came out at 0.04 ± 0.074. The result for MAIVADHLGMSWTELARELNFSVDEINQIRVENPNSLISQSFMLLKKWVTRDGKNATTDALTSVLTKINRIDIVTLLE reads -0.114 ± 0.094. Then MAIVADHLGNSWTELARELNFSVDEINQIRVENPNSLISQSFMLLKKWVTRDGKNATTDALTSVLTKINRIDIVTLLE, with -0.133 ± 0.21; and MAIVADHLGSSWTELARELNFSVDEINQIRVENPNSLISQSFMLLKKWVTRDGKNATTDALTSVLTKINRIDIVTLLE, with 0.081 ± 0.053; and MAIVADHLGRSWTELARELNFSVDEINQIRVENPNSLISQSFMLLKKWVTRDGKNATTDALTSVLTKINRIDIVTLLE, with -0.022 ± 0.052. The result for MAIVADHLGISWTELARELNFSVDEINQIRVENPNSLISQSFMLLKKWVTRDGKNATTDALTSVLTKINRIDIVTLLE reads -0.096 ± 0.19; that for MAIVADHLGTSWTELARELNFSVDEINQIRVENPNSLISQSFMLLKKWVTRDGKNATTDALTSVLTKINRIDIVTLLE, -0.046 ± 0.079. Consider MAIVADHLGYSWTELARELNFSVDEINQIRVENPNSLISQSFMLLKKWVTRDGKNATTDALTSVLTKINRIDIVTLLE, for which the abundance fitness was -0.104 ± 0.2. Regarding MAIVADHLGLCWTELARELNFSVDEINQIRVENPNSLISQSFMLLKKWVTRDGKNATTDALTSVLTKINRIDIVTLLE, the abundance fitness was -0.342 ± 0.087. On to MAIVADHLGLAWTELARELNFSVDEINQIRVENPNSLISQSFMLLKKWVTRDGKNATTDALTSVLTKINRIDIVTLLE, for which the abundance fitness is -0.31 ± 0.073. With MAIVADHLGLWWTELARELNFSVDEINQIRVENPNSLISQSFMLLKKWVTRDGKNATTDALTSVLTKINRIDIVTLLE, the abundance fitness was -1.05 ± 0.25.

With MAIVADHLGLQWTELARELNFSVDEINQIRVENPNSLISQSFMLLKKWVTRDGKNATTDALTSVLTKINRIDIVTLLE, the abundance fitness is -0.053 ± 0.076. As for MAIVADHLGLTWTELARELNFSVDEINQIRVENPNSLISQSFMLLKKWVTRDGKNATTDALTSVLTKINRIDIVTLLE, the abundance fitness is -0.314 ± 0.06. The result for MAIVADHLGLGWTELARELNFSVDEINQIRVENPNSLISQSFMLLKKWVTRDGKNATTDALTSVLTKINRIDIVTLLE reads -0.261 ± 0.056.

Take MAIVADHLGLIWTELARELNFSVDEINQIRVENPNSLISQSFMLLKKWVTRDGKNATTDALTSVLTKINRIDIVTLLE: the abundance fitness is -0.422 ± 0.19. The result for MAIVADHLGLFWTELARELNFSVDEINQIRVENPNSLISQSFMLLKKWVTRDGKNATTDALTSVLTKINRIDIVTLLE reads -0.654 ± 0.19; that for MAIVADHLGLVWTELARELNFSVDEINQIRVENPNSLISQSFMLLKKWVTRDGKNATTDALTSVLTKINRIDIVTLLE, -0.84 ± 0.11; that for MAIVADHLGLNWTELARELNFSVDEINQIRVENPNSLISQSFMLLKKWVTRDGKNATTDALTSVLTKINRIDIVTLLE, 0.009 ± 0.23. The result for MAIVADHLGLEWTELARELNFSVDEINQIRVENPNSLISQSFMLLKKWVTRDGKNATTDALTSVLTKINRIDIVTLLE reads -0.326 ± 0.066; that for MAIVADHLGLLWTELARELNFSVDEINQIRVENPNSLISQSFMLLKKWVTRDGKNATTDALTSVLTKINRIDIVTLLE, -0.963 ± 0.12; that for MAIVADHLGLMWTELARELNFSVDEINQIRVENPNSLISQSFMLLKKWVTRDGKNATTDALTSVLTKINRIDIVTLLE, -0.94 ± 0.24. For the variant MAIVADHLGLKWTELARELNFSVDEINQIRVENPNSLISQSFMLLKKWVTRDGKNATTDALTSVLTKINRIDIVTLLE, the abundance fitness is -0.761 ± 0.25. Then MAIVADHLGLPWTELARELNFSVDEINQIRVENPNSLISQSFMLLKKWVTRDGKNATTDALTSVLTKINRIDIVTLLE, with -1.03 ± 0.24; and MAIVADHLGLRWTELARELNFSVDEINQIRVENPNSLISQSFMLLKKWVTRDGKNATTDALTSVLTKINRIDIVTLLE, with -0.965 ± 0.12; and MAIVADHLGLDWTELARELNFSVDEINQIRVENPNSLISQSFMLLKKWVTRDGKNATTDALTSVLTKINRIDIVTLLE, with 0.092 ± 0.13.

On to MAIVADHLGLSPTELARELNFSVDEINQIRVENPNSLISQSFMLLKKWVTRDGKNATTDALTSVLTKINRIDIVTLLE, for which the abundance fitness was -0.433 ± 0.11. The result for MAIVADHLGLSMTELARELNFSVDEINQIRVENPNSLISQSFMLLKKWVTRDGKNATTDALTSVLTKINRIDIVTLLE reads -0.844 ± 0.25; that for MAIVADHLGLSITELARELNFSVDEINQIRVENPNSLISQSFMLLKKWVTRDGKNATTDALTSVLTKINRIDIVTLLE, -0.738 ± 0.26. On to MAIVADHLGLSCTELARELNFSVDEINQIRVENPNSLISQSFMLLKKWVTRDGKNATTDALTSVLTKINRIDIVTLLE, for which the abundance fitness was -0.931 ± 0.28. The result for MAIVADHLGLSETELARELNFSVDEINQIRVENPNSLISQSFMLLKKWVTRDGKNATTDALTSVLTKINRIDIVTLLE reads -0.903 ± 0.2; that for MAIVADHLGLSATELARELNFSVDEINQIRVENPNSLISQSFMLLKKWVTRDGKNATTDALTSVLTKINRIDIVTLLE, -0.862 ± 0.16.

On to MAIVADHLGLSLTELARELNFSVDEINQIRVENPNSLISQSFMLLKKWVTRDGKNATTDALTSVLTKINRIDIVTLLE, for which the abundance fitness is -0.838 ± 0.11.
